The supplement of paper PMC10567573
± gives the standard deviation.

Assay: protein stability index of a GFP-peptide fusion (GPS, HEK-293T) (PSI 1-6); higher = more stable
Details: c terminus: a fixed tail appended
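Further: 24-mer peptide tiles fused after GFP, lentivirally expressed, FACS-sorted into six equal bins by GFP/DsRed ratio, decoded by Illumina sequencing, PSI is the read-weighted mean bin number.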

Sequence | protein stability index (treatment: DMSO) | protein stability index (treatment: MLN4924 1 uM, 8 h)
VVCAFFKQGQCTKGDKCKFSHDLT [ZC3H15] | 4.26 ± 0.64 | 4.1 ± 0.47
VVDKDKRNQCRYCRLKKCFRAGMK [HNF4A] | 2.51 ± 0.065 | 2.75 ± 0.39
VVWNAQTGEKLLELNGHTQKITAI [WDR41] | 2.19 ± 0.2 | 2.31 ± 0.17
VYASDKEWIRFDQSNVLCSIFGIC [PTGFR] | 2.56 ± 1.4 | 2.24 ± 0.78
WAFSCGTWLPSRAEWLLAVRSIQP [AASDHPPT] | 2.65 ± 0.65 | 2.6 ± 0.64
WDKEPWFWHDTLTEQLWRIFAGVH [TLE6] | 2.61 ± 0.82 | 2.22 ± 0.57
WGGKAETERGLSRKHIIEGLKASL [KCNAB2] | 2.26 ± 0.29 | 2.02 ± 0.21
WIQFNHPYTEKPRLWHTACASDEG [KLHDC2] | 2.28 ± 0.31 | 2.4 ± 0.13
WKFPVPVLKTSRSTPLSPAYISLV [KLHL13] | 2.48 ± 0.42 | 2.26 ± 0.1
WKSHLRNVQRPLLQAPFLPPKPPP [RHOBTB2] | 3.03 ± 0.21 | 3.15 ± 0.32
WLPLATLIDEKVLILHGGVSDITD [PPEF2] | 2.22 ± 0.64 | 2.4 ± 0.58
WLPYLYTLQGLYLVYHPVQLSTPH [DHCR7] | 3 ± 0.25 | 2.91 ± 0.34
WRMLRPQLVNSSADNMLEYKSWLK [PPEF2] | 2.64 ± 0.49 | 2.7 ± 0.39
YAELGQCSVFPATDAPEQFISQVT [PLK2] | 2.67 ± 0.16 | 3.04 ± 0.41
YAVENEHMNRLQSQRAMLLQGTES [VTI1B] | 3.94 ± 0.31 | 4.1 ± 0.2
YDFDTQYAFVGDYSGQITLLKLEQ [WDFY1] | 2.19 ± 0.11 | 2.33 ± 0.27
YDPWNAPEGIQKVAKCLIGVNYPK [CRY1] | 2.69 ± 0.13 | 2.87 ± 0.16

Sequence | protein stability index (treatment: DMSO) | protein stability index (treatment: MLN4924 1 uM, 8 h)
YEIEIQAEDGGAYLATAKVLITVE [PCDHGA10] | 2.96 ± 0.39 | 2.89 ± 0.91
YFFPVIFSKASDSLQLVFGIELME [MAGEA6] | 3 ± 0.29 | 3.02 ± 0.54
YGALSSNLQPPASLQTGNHSNGPT [NOL4L] | 4.39 ± 0.22 | 4.44 ± 0.18
YGSGDTPGGPCDSTLGGDIRESDP [TBX6] | 5.25 ± 0.31 | 5.27 ± 0.61
YLIMIFLGLYINFRHLYKQRRRRY [HACD3] | 2.55 ± 0.86 | 2.53 ± 0.63
YPITLYLEKEREKEISDDEAEEEK [HSP90AB1] | 5.01 ± 0.39 | 5.3 ± 0.083
YPPPPPALPSSAPSGPPPPPPSVL [WASL] | 4.54 ± 0.2 | 4.5 ± 0.16
YQELNYRSVEEAPVYSVPQLLSAM [SCNN1D] | 2.49 ± 0.34 | 2.69 ± 0.29
YQLGEEAMEKFREDEGFLREEERP [KCNA3] | 5.13 ± 0.2 | 5.27 ± 0.24
YSAEQFCVSRNSHLTSVTSESEQE [CD207] | 5.23 ± 0.21 | 5.13 ± 0.32
YSSGPQSWYPKANNQDFIPFTKKR [ZC2HC1C] | 3.07 ± 0.54 | 3.68 ± 0.22
YSVARQFNLTPPICEQAEYHMFQR [KCNAB2] | 2.64 ± 0.23 | 2.93 ± 0.29
YTDNSIRPEELLQMELLLVNKLKW [CCND1] | 2.14 ± 0.12 | 2.37 ± 0.29
YTGIVLLRCRKEFYQLVWSALPFI [POP5] | 3.12 ± 0.41 | 3.05 ± 0.47
YWKLQIFFTNVIQALGEHLKLRQQ [CCNC] | 2.66 ± 0.84 | 2.46 ± 0.38
YYSCERAKKAMGYQPLVTMDDAME [NSDHL] | 3.97 ± 0.34 | 3.71 ± 0.45
